# Data published in patent US10344077.
# Changes are numbered by the printed parent chain.
# T1: Centromere B (UniProt P07199)
# T1 sequence (looked up): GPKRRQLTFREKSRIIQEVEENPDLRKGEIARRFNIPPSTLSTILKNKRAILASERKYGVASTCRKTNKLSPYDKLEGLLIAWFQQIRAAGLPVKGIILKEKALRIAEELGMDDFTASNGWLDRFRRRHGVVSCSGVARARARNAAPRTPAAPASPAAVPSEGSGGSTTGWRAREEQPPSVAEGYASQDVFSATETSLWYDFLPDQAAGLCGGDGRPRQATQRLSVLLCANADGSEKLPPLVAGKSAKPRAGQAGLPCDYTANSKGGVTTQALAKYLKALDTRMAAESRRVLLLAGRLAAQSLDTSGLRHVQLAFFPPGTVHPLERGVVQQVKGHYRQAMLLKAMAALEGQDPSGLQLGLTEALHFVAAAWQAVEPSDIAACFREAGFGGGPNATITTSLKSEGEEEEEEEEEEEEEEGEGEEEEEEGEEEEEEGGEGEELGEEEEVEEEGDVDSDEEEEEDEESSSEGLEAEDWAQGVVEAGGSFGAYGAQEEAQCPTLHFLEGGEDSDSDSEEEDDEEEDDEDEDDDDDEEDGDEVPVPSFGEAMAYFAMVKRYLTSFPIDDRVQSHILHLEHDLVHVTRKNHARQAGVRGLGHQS
# T2: Jo-1 (UniProt P12081)
# T2 sequence (looked up): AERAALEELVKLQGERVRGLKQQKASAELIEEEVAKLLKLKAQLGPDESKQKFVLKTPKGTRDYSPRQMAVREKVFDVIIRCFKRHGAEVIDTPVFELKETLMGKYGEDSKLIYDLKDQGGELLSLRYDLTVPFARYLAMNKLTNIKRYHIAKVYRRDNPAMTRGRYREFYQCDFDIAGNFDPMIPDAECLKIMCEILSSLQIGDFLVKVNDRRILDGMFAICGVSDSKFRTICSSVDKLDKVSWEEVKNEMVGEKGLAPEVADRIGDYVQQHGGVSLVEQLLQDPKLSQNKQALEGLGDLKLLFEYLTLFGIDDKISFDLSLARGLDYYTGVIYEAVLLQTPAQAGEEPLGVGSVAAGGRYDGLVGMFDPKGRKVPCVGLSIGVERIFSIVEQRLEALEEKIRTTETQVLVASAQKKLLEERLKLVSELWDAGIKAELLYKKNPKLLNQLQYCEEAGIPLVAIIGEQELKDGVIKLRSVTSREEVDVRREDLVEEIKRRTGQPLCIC
# B1: CH235_4A (antibody, from a related filing, V domains shown)
# VH: QVQLVQSGAEVKKPGASVTVSCQASGYTFTNYYVHWVRQAPGQGLQLMGWIDPSWGRTNYAQNFQGRITMTRDTSTSTVYMEMRSLRSEDTAVYYCARNVATEGSLLHYDYWGQGTLVTVSA
# VL: EIVLTQSPATLSVSPGERATLSCRASQSVRSNLAWYQQRPGQAPRLLIYGTSTRATGVPARFSGRGSGTEFTLAISSMQSEDFAVYLCLQYNNWWTFGQGTKVEIK
# B2: CH240_4A/293i (antibody, from a related filing, V domains shown)
# VH: QVQLVQSGTEVRKPGASVTISCKASGYTFNNFYVHWVRQAPGQGLECMGWIDPSVGRISYGQKFQGRVTMTRDRSTSTVYMGLSSLRSEDTAMYYCVRDVGTEGSLLHFDHWGQGTLVIVSA
# VL: B1 VL with S26T, R39K, P40R, G50S, T51A, V58I, R65S, A74T, M78V, L87Y
# B3: CH241 (antibody, from a related filing, V domains shown)
# VH: QVQLVQSGAAVKKPGASVRVSCKASGYTFTSSHIHWVRQAPGQGPEWMGMIDPSVGRPTTAGKFQGRVTMTRDRYTSTAYMDLSSLRSEDTAVYYCARSVETTGSLLYFDYWGQGTLITVSS
# VL: EIVLTQSPATLSVSPGERATLSCRASQSVRSNIAWYQQKPGQAPRLLIHGASTRATGIPGRFSGSGSGPEFTLAISSVQSEDFAVYYCQQYNDWWTFGQGTKVEIK
# B4: CH239_4A/293i (antibody, from a related filing, V domains shown)
# VH: B2 VH with T9A, I20V, S59N, G61A, M93I
# VL: EIVLTQSPATLSVSPGERATLSCRATQSVRSNVAWYQQKPGQAPRLLIYSASTRATGIPARFSGSGSGTEFTLTIASMQSEDFAVYYCLQYDDWWTFGQGTKVEIK
# Target: Sm (Smith antigen)
# Assay: AtheNA, Ab 12.5 ug/ml
row,Athena reading (relative luminescence units),Binder
1,8,B1
2,13,B2
3,7,B3
4,277,B4

# Target: SSA
# Assay: AtheNA, Ab 12.5 ug/ml
row,Athena reading (relative luminescence units),Binder
1,13,B1
2,14,B2
3,14,B3
4,277,B4

# Target: T1, Centromere B
# Assay: AtheNA, Ab 12.5 ug/ml
row,Athena reading (relative luminescence units),Binder
1,5,B1
2,15,B2
3,8,B3
4,216,B4

# Target: Histones
# Assay: AtheNA, Ab 12.5 ug/ml
row,Athena reading (relative luminescence units),Binder
1,5,B1
2,18,B2
3,13,B3
4,263,B4

# Target: Scl-70 (UniProt P11387)
# Assay: AtheNA, Ab 12.5 ug/ml
# Sequence of Scl-70 (P11387 2-765 limits assumed): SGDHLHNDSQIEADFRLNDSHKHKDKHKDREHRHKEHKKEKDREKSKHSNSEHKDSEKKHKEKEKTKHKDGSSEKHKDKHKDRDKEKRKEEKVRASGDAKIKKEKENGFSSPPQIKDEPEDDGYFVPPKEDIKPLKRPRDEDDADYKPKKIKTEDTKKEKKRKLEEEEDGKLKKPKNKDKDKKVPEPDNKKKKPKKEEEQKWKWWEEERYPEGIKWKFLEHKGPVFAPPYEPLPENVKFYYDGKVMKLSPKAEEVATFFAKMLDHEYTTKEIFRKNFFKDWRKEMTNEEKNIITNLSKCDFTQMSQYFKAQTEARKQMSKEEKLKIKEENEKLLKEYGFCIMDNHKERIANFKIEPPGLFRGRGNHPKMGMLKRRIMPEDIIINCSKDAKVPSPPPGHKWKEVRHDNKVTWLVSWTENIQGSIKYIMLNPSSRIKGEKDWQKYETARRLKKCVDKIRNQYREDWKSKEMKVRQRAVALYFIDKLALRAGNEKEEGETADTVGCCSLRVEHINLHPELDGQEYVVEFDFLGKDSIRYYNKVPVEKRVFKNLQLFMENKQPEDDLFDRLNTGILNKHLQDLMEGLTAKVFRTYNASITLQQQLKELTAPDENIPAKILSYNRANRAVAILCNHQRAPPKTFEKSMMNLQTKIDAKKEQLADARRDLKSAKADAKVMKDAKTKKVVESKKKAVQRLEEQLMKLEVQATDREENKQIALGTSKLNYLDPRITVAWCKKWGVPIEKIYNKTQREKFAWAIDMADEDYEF
row,Athena reading (relative luminescence units),Binder
1,2,B1
2,4,B2
3,3,B3
4,48,B4

# Target: T2, Jo-1
# Assay: AtheNA, Ab 12.5 ug/ml
row,Athena reading (relative luminescence units),Binder
1,3,B1
2,7,B2
3,6,B3
4,8,B4

# Target: RNP (ribonucleoprotein)
# Assay: AtheNA, Ab 12.5 ug/ml
row,Athena reading (relative luminescence units),Binder
1,6,B1
2,8,B2
3,5,B3
4,85,B4

# Substrate: T3, SSB (UniProt P05455)
# T3 sequence (looked up): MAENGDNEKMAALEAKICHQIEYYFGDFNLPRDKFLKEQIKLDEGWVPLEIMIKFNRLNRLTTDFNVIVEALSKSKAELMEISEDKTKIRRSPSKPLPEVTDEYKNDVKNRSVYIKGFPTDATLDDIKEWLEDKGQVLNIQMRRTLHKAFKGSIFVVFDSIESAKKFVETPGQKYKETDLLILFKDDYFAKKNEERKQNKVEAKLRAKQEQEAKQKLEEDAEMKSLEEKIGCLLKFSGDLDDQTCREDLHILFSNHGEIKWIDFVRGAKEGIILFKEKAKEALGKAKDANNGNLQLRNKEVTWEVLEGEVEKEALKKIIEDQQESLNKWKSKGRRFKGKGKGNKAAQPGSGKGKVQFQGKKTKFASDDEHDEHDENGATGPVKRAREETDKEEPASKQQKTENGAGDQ
# Assay: AtheNA, Ab 6.25 ug/ml
row,Athena reading (relative luminescence units),Binder
1,6,B1
2,5,B2
3,4,B3
4,5,B4

# Target: Sm (Smith antigen)
# Assay: AtheNA, Ab 50 ug/ml
row,Athena reading (relative luminescence units),Binder
1,250,B4

# Target: SSA
# Assay: AtheNA, Ab 50 ug/ml
row,Athena reading (relative luminescence units),Binder
1,289,B4

# Target: T1, Centromere B
# Assay: AtheNA, Ab 50 ug/ml
row,Athena reading (relative luminescence units),Binder
1,173,B4

# Target: Histones
# Assay: AtheNA, Ab 50 ug/ml
row,Athena reading (relative luminescence units),Binder
1,228,B4

# Substrate: T3, 
# Assay: AtheNA, Ab 25 ug/ml
row,Athena reading (relative luminescence units),Binder
1,5,B1
2,11,B2
3,6,B3
4,8,B4

# Target: Sm (Smith antigen)
# Assay: AtheNA, Ab 25 ug/ml
row,Athena reading (relative luminescence units),Binder
1,7,B1
2,22,B2
3,11,B3
4,237,B4

# Target: SSA
# Assay: AtheNA, Ab 25 ug/ml
row,Athena reading (relative luminescence units),Binder
1,13,B1
2,16,B2
3,15,B3
4,306,B4

# Target: T1, Centromere B
# Assay: AtheNA, Ab 25 ug/ml
row,Athena reading (relative luminescence units),Binder
1,6,B1
2,24,B2
3,14,B3
4,199,B4

# Target: Histones
# Assay: AtheNA, Ab 25 ug/ml
row,Athena reading (relative luminescence units),Binder
1,7,B1
2,27,B2
3,20,B3
4,253,B4

# Target: Scl-70 (UniProt P11387)
# Assay: AtheNA, Ab 25 ug/ml
row,Athena reading (relative luminescence units),Binder
1,4,B1
2,6,B2
3,4,B3

# Target: T2, Jo-1
# Assay: AtheNA, Ab 25 ug/ml
row,Athena reading (relative luminescence units),Binder
1,4,B1
2,11,B2
3,5,B3
4,11,B4

# Target: RNP (ribonucleoprotein)
# Assay: AtheNA, Ab 25 ug/ml
row,Athena reading (relative luminescence units),Binder
1,5,B1
2,11,B2
3,6,B3
4,96,B4

# Target: Sm (Smith antigen)
# Assay: AtheNA, Ab 6.25 ug/ml
row,Athena reading (relative luminescence units),Binder
1,5,B1
2,9,B2
3,4,B3
4,285,B4

# Target: SSA
# Assay: AtheNA, Ab 6.25 ug/ml
row,Athena reading (relative luminescence units),Binder
1,12,B1
2,12,B2
3,15,B3
4,178,B4

# Target: T1, Centromere B
# Assay: AtheNA, Ab 6.25 ug/ml
row,Athena reading (relative luminescence units),Binder
1,3,B1
2,8,B2
3,6,B3
4,260,B4

# Target: Histones
# Assay: AtheNA, Ab 6.25 ug/ml
row,Athena reading (relative luminescence units),Binder
1,5,B1
2,9,B2
3,9,B3
4,266,B4

# Target: Scl-70 (UniProt P11387)
# Assay: AtheNA, Ab 6.25 ug/ml
row,Athena reading (relative luminescence units),Binder
1,2,B1
2,3,B2
3,1,B3
4,49,B4

# Target: T2, Jo-1
# Assay: AtheNA, Ab 6.25 ug/ml
row,Athena reading (relative luminescence units),Binder
1,2,B1
2,5,B2
3,2,B3
4,8,B4

# Target: RNP (ribonucleoprotein)
# Assay: AtheNA, Ab 6.25 ug/ml
row,Athena reading (relative luminescence units),Binder
1,3,B1
2,6,B2
3,3,B3
4,78,B4

# Substrate: T3, 
# Assay: AtheNA, Ab 12.5 ug/ml
row,Athena reading (relative luminescence units),Binder
1,5,B1
2,5,B2
3,8,B3
4,6,B4
